Measured values taken from publication PMC8307404, “Crystal Structure-Guided Design of Bisubstrate Inhibitors and Photoluminescent Probes for Protein Kinases of the PIM Family” (Molecules, 2021).
Square brackets hold non-standard residues; d marks the D form. Peptide text beside a SMILES is read from it. * marks the point of attachment. X3 = O=C(CCCCCNCc1nc2c(sc3cc(Br)cnc32)c(=O)[nH]1)*

What was measured:
Assay in all cases: Kinase profiling (radiometric filter-binding)
Type in all cases: biochemical
ASK1 = target: T1, ASK1 (Homo sapiens, UniProt Q99683); conditions: ASK1, 1 µM inhibitor; read-out: Residual activity, %
T1 sequence (Q99683 1-1374): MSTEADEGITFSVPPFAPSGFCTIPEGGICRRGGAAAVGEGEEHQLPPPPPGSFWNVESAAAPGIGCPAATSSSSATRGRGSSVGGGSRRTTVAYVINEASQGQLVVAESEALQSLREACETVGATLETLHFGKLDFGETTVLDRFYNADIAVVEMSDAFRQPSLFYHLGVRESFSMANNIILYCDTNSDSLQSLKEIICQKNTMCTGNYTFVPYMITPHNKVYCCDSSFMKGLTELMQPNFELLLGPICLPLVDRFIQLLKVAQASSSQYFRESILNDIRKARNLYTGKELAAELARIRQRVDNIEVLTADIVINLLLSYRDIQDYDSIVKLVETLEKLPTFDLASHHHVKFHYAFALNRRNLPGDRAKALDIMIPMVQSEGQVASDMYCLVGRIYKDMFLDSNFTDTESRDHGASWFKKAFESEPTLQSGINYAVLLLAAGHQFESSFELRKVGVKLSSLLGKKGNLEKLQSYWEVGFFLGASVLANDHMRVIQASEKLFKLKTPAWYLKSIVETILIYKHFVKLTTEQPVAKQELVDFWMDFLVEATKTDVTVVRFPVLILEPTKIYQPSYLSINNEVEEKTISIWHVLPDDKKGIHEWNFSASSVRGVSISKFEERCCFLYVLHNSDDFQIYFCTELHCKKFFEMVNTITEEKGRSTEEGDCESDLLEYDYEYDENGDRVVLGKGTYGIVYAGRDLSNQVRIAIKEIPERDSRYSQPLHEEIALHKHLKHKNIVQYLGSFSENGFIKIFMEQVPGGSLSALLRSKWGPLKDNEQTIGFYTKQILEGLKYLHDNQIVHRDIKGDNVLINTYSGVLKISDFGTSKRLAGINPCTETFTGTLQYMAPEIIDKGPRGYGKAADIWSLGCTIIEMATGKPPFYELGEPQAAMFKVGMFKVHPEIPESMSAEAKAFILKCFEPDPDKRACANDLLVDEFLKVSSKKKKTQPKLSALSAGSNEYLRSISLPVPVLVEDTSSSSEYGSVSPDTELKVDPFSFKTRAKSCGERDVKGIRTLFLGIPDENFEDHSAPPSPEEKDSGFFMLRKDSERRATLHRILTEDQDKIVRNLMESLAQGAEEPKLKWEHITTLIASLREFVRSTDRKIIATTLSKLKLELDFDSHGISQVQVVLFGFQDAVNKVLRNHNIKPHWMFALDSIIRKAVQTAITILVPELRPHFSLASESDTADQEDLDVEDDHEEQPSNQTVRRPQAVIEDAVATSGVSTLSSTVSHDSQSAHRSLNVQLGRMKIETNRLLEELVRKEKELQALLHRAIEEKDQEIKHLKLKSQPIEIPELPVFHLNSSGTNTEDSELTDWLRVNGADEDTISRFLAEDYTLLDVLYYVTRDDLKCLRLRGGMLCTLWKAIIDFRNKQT
Method in brief: (§1)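 Human kinase, ATP (≤ KM) and test compound (1 µM final) were combined; phosphorylation was quantified by radiometric filter binding. Activity left was normalised to the control reaction without compound.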

IKK = target: T2, IKK (Homo sapiens, UniProt Q14164); conditions: second of two IKK lines (Greek letter lost), 1 µM inhibitor, read-out: Residual activity, %
T2 sequence (Q14164 1-716): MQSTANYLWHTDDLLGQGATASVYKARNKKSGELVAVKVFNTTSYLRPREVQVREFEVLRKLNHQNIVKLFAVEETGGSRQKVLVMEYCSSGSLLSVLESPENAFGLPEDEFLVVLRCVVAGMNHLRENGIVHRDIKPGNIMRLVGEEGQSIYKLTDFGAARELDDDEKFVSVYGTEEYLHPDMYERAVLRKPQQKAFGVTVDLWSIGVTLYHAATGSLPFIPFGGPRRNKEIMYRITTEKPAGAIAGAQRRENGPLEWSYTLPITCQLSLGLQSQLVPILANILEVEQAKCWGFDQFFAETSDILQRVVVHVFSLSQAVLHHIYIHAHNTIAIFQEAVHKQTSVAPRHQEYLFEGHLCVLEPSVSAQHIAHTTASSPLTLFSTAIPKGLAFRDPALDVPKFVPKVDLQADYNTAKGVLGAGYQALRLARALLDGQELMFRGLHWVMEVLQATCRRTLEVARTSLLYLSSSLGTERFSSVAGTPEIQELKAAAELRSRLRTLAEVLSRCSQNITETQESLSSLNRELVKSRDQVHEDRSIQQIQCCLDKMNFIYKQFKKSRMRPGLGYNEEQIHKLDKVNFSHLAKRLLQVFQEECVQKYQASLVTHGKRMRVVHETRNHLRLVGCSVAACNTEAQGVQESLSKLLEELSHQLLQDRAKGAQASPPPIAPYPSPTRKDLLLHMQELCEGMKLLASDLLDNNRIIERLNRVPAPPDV
Method in brief: as §1

Lck = Lck (Homo sapiens, UniProt P06239); conditions: 1 µM inhibitor, read-out: Residual activity, %
Method in brief: as §1

MAP4K5 = MAP4K5 (Homo sapiens, UniProt Q9Y4K4); conditions: MAP4K5, 1 µM inhibitor; read-out: Residual activity, %
Method in brief: as §1

MINK1 = MINK1 (Homo sapiens, UniProt Q8N4C8); conditions: MINK1, 1 µM inhibitor; read-out: Residual activity, %
Method in brief: as §1

PAK2 = PAK2 (Homo sapiens, UniProt Q13177); conditions: PAK2, 1 µM inhibitor; read-out: Residual activity, %
Method in brief: as §1

PAK5 = PAK5 (Homo sapiens, UniProt Q9P286); conditions: PAK5, 1 µM inhibitor; read-out: Residual activity, %
Method in brief: as §1

PIM2 = PIM2 (Homo sapiens, UniProt Q9P1W9); conditions: PIM2, 1 µM inhibitor; read-out: Residual activity, %
Method in brief: as §1

S6K1 = S6K1 (Homo sapiens, UniProt P23443); conditions: S6K1, 1 µM inhibitor; read-out: Residual activity, %
Method in brief: as §1

SIK3 = SIK3 (Homo sapiens, UniProt Q9Y2K2); conditions: SIK3, 1 µM inhibitor; read-out: Residual activity, %
Method in brief: as §1

Chain of MINK1 (Q8N4C8 whole entry): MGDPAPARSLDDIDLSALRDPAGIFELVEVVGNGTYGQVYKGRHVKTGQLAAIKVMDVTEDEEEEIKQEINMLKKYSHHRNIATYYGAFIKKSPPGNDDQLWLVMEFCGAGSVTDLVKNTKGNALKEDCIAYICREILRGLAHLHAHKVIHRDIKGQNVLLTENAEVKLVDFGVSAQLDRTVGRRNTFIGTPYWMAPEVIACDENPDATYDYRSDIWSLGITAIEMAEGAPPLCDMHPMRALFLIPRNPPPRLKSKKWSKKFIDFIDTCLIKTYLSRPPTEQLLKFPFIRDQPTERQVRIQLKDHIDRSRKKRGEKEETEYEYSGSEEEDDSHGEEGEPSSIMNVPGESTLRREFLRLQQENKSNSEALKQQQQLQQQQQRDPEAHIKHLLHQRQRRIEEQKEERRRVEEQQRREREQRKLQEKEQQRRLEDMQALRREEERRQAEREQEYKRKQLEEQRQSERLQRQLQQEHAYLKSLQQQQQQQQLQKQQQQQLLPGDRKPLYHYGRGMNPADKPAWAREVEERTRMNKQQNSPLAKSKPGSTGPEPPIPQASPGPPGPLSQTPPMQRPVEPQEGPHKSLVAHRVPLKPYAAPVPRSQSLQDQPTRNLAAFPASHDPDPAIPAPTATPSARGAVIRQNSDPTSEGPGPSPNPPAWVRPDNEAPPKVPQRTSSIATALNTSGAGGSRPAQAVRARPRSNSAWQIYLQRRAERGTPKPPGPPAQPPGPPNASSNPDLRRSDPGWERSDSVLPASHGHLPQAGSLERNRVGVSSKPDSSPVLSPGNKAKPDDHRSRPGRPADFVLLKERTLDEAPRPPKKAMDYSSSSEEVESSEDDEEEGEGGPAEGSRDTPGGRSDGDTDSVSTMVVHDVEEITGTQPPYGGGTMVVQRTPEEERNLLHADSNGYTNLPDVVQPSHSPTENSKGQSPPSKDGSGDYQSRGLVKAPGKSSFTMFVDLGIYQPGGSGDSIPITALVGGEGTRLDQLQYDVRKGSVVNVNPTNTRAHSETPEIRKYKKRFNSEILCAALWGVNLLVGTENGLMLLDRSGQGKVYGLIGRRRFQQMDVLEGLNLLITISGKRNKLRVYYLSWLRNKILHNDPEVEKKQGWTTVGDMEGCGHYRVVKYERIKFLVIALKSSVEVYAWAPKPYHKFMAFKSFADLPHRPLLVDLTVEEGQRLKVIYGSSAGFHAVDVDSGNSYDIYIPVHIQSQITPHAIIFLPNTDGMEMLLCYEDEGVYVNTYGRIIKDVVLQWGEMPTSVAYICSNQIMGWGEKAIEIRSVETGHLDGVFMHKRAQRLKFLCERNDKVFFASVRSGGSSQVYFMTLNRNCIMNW
Chain of PAK5 (Q9P286 whole entry): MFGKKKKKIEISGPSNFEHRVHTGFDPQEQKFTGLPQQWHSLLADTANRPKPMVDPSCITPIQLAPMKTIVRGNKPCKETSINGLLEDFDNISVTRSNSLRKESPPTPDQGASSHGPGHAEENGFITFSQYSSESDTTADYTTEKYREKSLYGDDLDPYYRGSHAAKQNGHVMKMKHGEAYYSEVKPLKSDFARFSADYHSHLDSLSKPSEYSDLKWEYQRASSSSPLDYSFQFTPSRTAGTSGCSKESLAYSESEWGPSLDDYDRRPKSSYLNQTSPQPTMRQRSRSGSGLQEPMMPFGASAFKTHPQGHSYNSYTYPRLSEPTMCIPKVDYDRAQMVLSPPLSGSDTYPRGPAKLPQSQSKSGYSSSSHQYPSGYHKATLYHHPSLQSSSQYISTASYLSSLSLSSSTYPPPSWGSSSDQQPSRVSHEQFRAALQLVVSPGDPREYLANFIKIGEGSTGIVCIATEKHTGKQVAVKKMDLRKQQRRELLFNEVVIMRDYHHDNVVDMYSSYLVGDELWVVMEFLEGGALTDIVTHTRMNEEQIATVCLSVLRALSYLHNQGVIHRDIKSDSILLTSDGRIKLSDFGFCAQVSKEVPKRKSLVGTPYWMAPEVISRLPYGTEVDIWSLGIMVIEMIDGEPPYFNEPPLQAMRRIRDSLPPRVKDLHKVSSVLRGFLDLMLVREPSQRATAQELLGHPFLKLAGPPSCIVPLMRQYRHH
Chain of S6K1 (P23443 whole entry): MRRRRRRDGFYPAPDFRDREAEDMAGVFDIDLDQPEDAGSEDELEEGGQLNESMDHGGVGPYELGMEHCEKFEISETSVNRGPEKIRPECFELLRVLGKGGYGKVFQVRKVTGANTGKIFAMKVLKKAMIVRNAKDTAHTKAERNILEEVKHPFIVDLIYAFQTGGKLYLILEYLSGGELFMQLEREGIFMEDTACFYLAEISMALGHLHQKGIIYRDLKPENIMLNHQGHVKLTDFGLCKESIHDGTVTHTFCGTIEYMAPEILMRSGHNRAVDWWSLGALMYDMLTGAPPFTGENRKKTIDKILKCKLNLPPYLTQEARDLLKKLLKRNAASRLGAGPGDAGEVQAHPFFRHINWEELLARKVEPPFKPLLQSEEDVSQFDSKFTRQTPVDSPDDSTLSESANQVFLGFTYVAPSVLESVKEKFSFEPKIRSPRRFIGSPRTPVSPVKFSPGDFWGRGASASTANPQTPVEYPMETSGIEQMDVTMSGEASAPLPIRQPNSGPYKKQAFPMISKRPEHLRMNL
Chain of PIM2 (Q9P1W9 whole entry): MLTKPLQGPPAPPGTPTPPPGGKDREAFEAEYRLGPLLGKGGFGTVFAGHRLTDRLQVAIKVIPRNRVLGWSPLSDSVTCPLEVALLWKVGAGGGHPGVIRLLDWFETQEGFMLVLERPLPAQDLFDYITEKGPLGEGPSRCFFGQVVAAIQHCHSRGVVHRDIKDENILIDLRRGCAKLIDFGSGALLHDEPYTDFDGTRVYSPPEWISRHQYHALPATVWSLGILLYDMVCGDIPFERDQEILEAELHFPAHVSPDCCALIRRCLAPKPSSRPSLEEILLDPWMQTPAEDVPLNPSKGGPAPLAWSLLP
Chain of SIK3 (Q9Y2K2 whole entry): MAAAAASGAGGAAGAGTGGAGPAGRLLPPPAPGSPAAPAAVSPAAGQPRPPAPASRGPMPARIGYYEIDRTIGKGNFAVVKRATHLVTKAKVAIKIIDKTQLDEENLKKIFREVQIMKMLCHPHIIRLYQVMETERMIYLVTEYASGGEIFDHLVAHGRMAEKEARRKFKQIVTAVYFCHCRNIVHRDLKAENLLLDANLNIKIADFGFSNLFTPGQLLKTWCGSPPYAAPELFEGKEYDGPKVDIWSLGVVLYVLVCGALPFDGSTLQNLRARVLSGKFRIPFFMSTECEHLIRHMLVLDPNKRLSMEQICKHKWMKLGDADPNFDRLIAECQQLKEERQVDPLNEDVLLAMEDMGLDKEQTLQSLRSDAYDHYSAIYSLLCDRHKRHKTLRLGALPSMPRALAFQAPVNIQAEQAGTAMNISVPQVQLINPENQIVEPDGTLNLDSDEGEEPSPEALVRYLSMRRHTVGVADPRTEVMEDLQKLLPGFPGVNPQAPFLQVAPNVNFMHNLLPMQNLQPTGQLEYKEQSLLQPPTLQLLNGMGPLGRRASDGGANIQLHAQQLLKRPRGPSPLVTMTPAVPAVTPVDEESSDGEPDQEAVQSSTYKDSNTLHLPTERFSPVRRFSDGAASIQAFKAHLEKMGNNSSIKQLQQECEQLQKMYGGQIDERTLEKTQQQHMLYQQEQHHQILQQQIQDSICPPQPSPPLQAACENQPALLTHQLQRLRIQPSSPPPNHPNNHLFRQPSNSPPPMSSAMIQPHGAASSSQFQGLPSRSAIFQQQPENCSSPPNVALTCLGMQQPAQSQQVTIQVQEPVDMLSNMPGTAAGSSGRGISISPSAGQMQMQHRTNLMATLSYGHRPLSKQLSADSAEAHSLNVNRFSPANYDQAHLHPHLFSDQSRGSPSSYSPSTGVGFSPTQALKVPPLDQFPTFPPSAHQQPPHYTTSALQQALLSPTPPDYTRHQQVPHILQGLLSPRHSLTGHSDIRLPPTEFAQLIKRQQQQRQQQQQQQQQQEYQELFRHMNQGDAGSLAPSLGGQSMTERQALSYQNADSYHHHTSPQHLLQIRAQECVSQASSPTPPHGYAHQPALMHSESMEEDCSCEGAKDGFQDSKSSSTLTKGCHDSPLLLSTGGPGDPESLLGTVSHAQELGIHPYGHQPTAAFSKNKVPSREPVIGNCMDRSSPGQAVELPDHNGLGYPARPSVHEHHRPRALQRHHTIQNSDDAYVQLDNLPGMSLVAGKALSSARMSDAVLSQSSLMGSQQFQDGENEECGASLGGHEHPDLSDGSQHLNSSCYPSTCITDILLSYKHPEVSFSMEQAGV
Chain of PAK2 (Q13177 whole entry): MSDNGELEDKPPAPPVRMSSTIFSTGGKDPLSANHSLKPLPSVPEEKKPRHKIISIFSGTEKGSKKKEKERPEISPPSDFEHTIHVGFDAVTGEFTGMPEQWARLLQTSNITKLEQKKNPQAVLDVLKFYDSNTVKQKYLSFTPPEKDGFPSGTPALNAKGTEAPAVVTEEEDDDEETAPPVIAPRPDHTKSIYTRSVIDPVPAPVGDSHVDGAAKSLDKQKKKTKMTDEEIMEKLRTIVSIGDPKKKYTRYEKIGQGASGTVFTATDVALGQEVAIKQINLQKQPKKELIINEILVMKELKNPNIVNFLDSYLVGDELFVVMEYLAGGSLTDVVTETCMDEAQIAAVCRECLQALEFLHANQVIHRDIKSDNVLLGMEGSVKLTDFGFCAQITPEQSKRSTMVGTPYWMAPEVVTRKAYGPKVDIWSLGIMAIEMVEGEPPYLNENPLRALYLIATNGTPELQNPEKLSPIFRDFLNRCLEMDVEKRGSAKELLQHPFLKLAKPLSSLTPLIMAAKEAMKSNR

Row | Compound | remaining activity at 1 µM (ASK1) | remaining activity at 1 µM (IKK) | remaining activity at 1 µM (Lck) | remaining activity at 1 µM (MAP4K5) | remaining activity at 1 µM (MINK1) | remaining activity at 1 µM (PAK2) | remaining activity at 1 µM (PAK5) | remaining activity at 1 µM (PIM2) | remaining activity at 1 µM (S6K1) | remaining activity at 1 µM (SIK3)
1 | N=C(N)NCCC[C@@H](NC(=O)CCCCCNC(=O)Cn1cnc2c(I)c(I)c(I)c(I)c21)C(=O)N[C@H](CCCNC(=N)N)C(=O)N[C@H](CCCNC(=N)N)C(=O)N[C@H](CCCNC(=N)N)C(=O)N[C@H](CCCNC(=N)N)C(=O)N[C@H](CCCNC(=N)N)C(=O)N[C@H](CCCCN)C(N)=O [ARC-3125, TIBI-CH2-C(=O)-Ahx-(D-Arg)6-D-Lys-NH2] | 93% | 77 ± 4% | 226 ± 7% | 102 ± 3% | 86 ± 1% | 29 ± 4% | 25 ± 6% | 0% | 13% | 89 ± 7%
2 | N=C(N)NCCC[C@@H](NC(=O)CNC(=O)[C@@H](CCCNC(=N)N)NC(=O)[C@@H](CCCNC(=N)N)NC(=O)CCCCCCCNCc1nc2c(sc3cc(Br)cnc32)c(=O)[nH]1)C(=O)N[C@H](CCCCN)C(N)=O [Compound 1, BPTP-Aoc-(D-Arg)2-Gly-D-Arg-D-Lys-NH2] | 99% | 116 ± 9% | 94 ± 18% | 107 ± 12% | 129 ± 2% | 99 ± 9% | 112 ± 3% | 72% | 98 ± 2% | 106 ± 2%
3 | N=C(N)NCCC[C@@H](NC(=O)CNC(=O)[C@@H](CCCNC(=N)N)NC(=O)[C@@H](CCCNC(=N)N)NC(=O)CCCCCCCNCc1nc2c(sc3ccc(Br)cc32)c(=O)[nH]1)C(=O)N[C@H](CCCCN)C(N)=O [Compound 2, BBTP-Aoc-(D-Arg)2-Gly-D-Arg-D-Lys-NH2] | 102 ± 5% | 104 ± 15% | 103 ± 18% | 112 ± 10% | 106 ± 13% | 100 ± 10% | 100 ± 2% | 7 ± 1% | 85 ± 1% | 97 ± 9%
4 | N=C(N)NCCC[C@@H](NC(=O)CCCCCNCc1nc2c(sc3cc(Br)cnc32)c(=O)[nH]1)C(=O)N[C@H](CCCNC(=N)N)C(=O)N[C@H](CCCNC(=N)N)C(=O)N[C@H](CCCNC(=N)N)C(=O)N[C@H](CCCNC(=N)N)C(=O)N[C@H](CCCNC(=N)N)C(=O)N[C@H](CCCCN)C(N)=O [ARC-3126, BPTP-Ahx-(D-Arg)6-D-Lys-NH2] (X3-[dR][dR][dR][dR][dR][dR][dK]-NH2) | 121 ± 11% | 118 ± 12% | 132 ± 28% | 50 ± 12% | 104 ± 16% | 72 ± 5% | 89 ± 2% | 10% | 75 ± 2% | 117 ± 15%
5 | N=C(N)NCCC[C@@H](NC(=O)CNC(=O)[C@@H](CCCNC(=N)N)NC(=O)[C@@H](CCCNC(=N)N)NC(=O)Cn1cc(CNCc2nc3c(sc4ccc(Br)cc43)c(=O)[nH]2)nn1)C(=O)N[C@H](CCCCN)C(N)=O [Compound 3, BBTP-Amt-(D-Arg)2-Gly-D-Arg-D-Lys-NH2] | 101 ± 2% | 122 ± 12% | 78 ± 6% | 98 ± 3% | 133 ± 14% | 91 ± 4% | 92 ± 5% | 15 ± 1% | 55 ± 6% | 66 ± 6%
